The record followed here is article PMC10397247.

For test [1], the target named is T1, P3mSN.
T1 chain: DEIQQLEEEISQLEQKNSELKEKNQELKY
Nature of the test: two-hybrid library CCNG1.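 Further: natural log of median RNA to DNA barcode read ratio; higher means stronger binding.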

In test [2] the target is T2, P5mSN.
T2 chain: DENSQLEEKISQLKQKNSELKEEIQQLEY
Description: two-hybrid library CCNG1.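 Further: natural log of median RNA to DNA barcode read ratio; higher means stronger binding.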

The target in test [3] is T3, P6mSN.
T3 chain: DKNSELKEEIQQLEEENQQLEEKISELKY
Nature of the test: two-hybrid library CCNG1.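 Further: natural log of median RNA to DNA barcode read ratio; higher means stronger binding.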

Test [4] addresses T4, P7mSN.
T4 chain: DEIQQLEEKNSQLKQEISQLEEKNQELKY
Nature of the test: two-hybrid library CCNG1.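 Further: natural log of median RNA to DNA barcode read ratio; higher means stronger binding.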

Test [5] concerns the target T5, P8mSN.
T5 chain: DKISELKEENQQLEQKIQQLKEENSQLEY
Description: two-hybrid library CCNG1.

For test [6], the target named is T6, P9mSN.
T6 chain: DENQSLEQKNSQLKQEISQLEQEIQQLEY
Nature of the test: two-hybrid library CCNG1.

Test [7] deals with T7, P4mS.
T7 chain: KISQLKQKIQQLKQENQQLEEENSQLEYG
Description: two-hybrid library CC1.

Test [8] deals with T8, P5SC1.
T8 chain: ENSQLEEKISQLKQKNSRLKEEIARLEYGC
Description: two-hybrid library CC1. The following applies: mean of both orientations.

Test [9] has as its target T9, P5SC2.
T9 chain: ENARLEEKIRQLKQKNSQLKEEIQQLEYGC
Description: two-hybrid library CC1. Particulars: mean of both orientations.

Test [10] has as its target T10, P5.
T10 chain: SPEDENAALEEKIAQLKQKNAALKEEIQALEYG
Nature of the test: two-hybrid library CC1. The following applies: mean of both orientations.

Test [11] addresses T11, P5mS.
T11 chain: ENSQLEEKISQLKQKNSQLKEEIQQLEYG
Description: two-hybrid library CC1. Particulars: mean of both orientations.

For test [12], the target named is T12, P6SC1.
T12 chain: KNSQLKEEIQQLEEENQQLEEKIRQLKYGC
Description: two-hybrid library CC1. The following applies: mean of both orientations.

In test [13] the target is T13, P6SC2.
T13 chain: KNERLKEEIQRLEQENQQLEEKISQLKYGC
Nature of the test: two-hybrid library CC1. Particulars: mean of both orientations.

For test [14], the target named is T14, P6.
T14 chain: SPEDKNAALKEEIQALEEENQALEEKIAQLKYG
Nature of the test: two-hybrid library CC1. The following applies: mean of both orientations.

Test [15] has as its target T15, P6mS.
T15 chain: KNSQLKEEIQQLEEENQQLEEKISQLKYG
Nature of the test: two-hybrid library CC1. Particulars: mean of both orientations.

The target in test [16] is T16, P7.
T16 chain: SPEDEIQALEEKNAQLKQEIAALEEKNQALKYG
Description: two-hybrid library CC1. The following applies: mean of both orientations.

Test [17] addresses T17, P7mS.
T17 chain: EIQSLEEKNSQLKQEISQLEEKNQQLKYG
Nature of the test: two-hybrid library CC1. The following applies: mean of both orientations.

The target of test [18] is T18, P8.
T18 chain: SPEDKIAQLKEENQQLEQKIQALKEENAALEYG
Nature of the test: two-hybrid library CC1. Particulars: mean of both orientations.

Test [19] concerns the target T19, P8mS.
T19 chain: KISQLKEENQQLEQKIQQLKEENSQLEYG
Nature of the test: two-hybrid library CC1. Particulars: mean of both orientations.

The target of test [20] is T20, P9.
T20 chain: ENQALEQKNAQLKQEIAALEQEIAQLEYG
Nature of the test: two-hybrid library CC1. Particulars: mean of both orientations.

In test [21] the target is T21, 4H233-AA.
T21 chain: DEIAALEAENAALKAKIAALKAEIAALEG
Nature of the test: two-hybrid library CCmax.

For test [22], the target named is T22, 4H2512-AA.
T22 chain: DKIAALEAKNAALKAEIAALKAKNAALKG
Description: two-hybrid library CCmax. The following applies: mean of both orientations.

Test [23] addresses T23, 4H2646-AA.
T23 chain: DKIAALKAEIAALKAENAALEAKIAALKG
Nature of the test: two-hybrid library CCmax. The following applies: mean of both orientations.

The target in test [24] is T24, 4H2687-AA.
T24 chain: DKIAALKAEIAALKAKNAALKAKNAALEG
Description: two-hybrid library CCmax. Particulars: mean of both orientations.

Test [25] addresses T25, 4H2705-AA.
T25 chain: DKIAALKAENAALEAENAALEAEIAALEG
Description: two-hybrid library CCmax. The following applies: mean of both orientations.

For test [26], the target named is T26, 4H2758-AA.
T26 chain: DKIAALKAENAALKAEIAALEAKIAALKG
Nature of the test: two-hybrid library CCmax. The following applies: mean of both orientations.

For test [27], the target named is T27, 4H278-AA.
T27 chain: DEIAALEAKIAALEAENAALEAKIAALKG
Description: two-hybrid library CCmax. Particulars: mean of both orientations.

The target in test [28] is T28, 4H2873-AA.
T28 chain: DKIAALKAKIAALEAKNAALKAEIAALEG
Description: two-hybrid library CCmax. Particulars: mean of both orientations.

The target in test [29] is T29, 4H2985-AA.
T29 chain: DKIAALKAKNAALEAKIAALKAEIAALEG
Description: two-hybrid library CCmax. The following applies: mean of both orientations.

For test [30], the target named is T30, 4H3134-AA.
T30 chain: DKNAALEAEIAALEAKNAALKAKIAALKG
Nature of the test: two-hybrid library CCmax. Particulars: mean of both orientations.

In test [31] the target is T31, 4H3409-AA.
T31 chain: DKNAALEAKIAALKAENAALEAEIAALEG
Nature of the test: two-hybrid library CCmax.

The target of test [32] is T32, 4H3595-AA.
T32 chain: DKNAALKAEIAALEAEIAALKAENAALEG
Nature of the test: two-hybrid library CCmax.

Test [33] has as its target T33, 4H3625-AA.
T33 chain: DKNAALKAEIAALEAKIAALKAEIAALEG
Nature of the test: two-hybrid library CCmax. Particulars: mean of both orientations.

In test [34] the target is T34, 4H390-AA.
T34 chain: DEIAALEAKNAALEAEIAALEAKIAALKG
Description: two-hybrid library CCmax. Particulars: mean of both orientations.

Test [35] has as its target T35, 4H3940-AA.
T35 chain: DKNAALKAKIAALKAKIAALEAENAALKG
Nature of the test: two-hybrid library CCmax. The following applies: mean of both orientations.

Test [36] concerns the target T36, 4H510-AA.
T36 chain: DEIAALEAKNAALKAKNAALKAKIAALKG
Description: two-hybrid library CCmax. The following applies: mean of both orientations.

Test [37] concerns the target T37, 4H775-AA.
T37 chain: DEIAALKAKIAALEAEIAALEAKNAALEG
Nature of the test: two-hybrid library CCmax. The following applies: mean of both orientations.

Test [38] addresses T38, 4H816-AA.
T38 chain: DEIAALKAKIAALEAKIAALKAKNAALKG
Description: two-hybrid library CCmax. Particulars: mean of both orientations.

The target of test [39] is T39, 4H87-AA.
T39 chain: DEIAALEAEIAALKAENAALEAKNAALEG
Nature of the test: two-hybrid library CCmax.

Test [40] has as its target T40, 4H4073-bA.
T40 chain: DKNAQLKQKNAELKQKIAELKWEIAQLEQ
Description: two-hybrid library CCNG1.

The target of test [41] is T41, 4H457-bA.
T41 chain: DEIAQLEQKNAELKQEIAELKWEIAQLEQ
Description: two-hybrid library CCNG1.

Test [42] addresses T42, 4H575-bA.
T42 chain: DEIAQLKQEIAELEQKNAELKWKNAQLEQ
Nature of the test: two-hybrid library CCNG1.

Test [43] concerns the target T43, 4H683-bA.
T43 chain: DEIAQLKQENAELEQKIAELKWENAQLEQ
Nature of the test: two-hybrid library CCNG1.

Test [44] deals with T44, 4H754-bA.
T44 chain: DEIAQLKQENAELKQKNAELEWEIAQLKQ
Nature of the test: two-hybrid library CCNG1.

The target of test [45] is T45, 4H780-bA.
T45 chain: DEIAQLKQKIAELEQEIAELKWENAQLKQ
Description: two-hybrid library CCNG1.

The target in test [46] is T46, 4H797-bA.
T46 chain: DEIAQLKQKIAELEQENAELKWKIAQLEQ
Nature of the test: two-hybrid library CCNG1.

Test [47] deals with T47, 4H855-bA.
T47 chain: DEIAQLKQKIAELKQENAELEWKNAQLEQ
Nature of the test: two-hybrid library CCNG1.

In test [48] the target is T48, 4H918-bA.
T48 chain: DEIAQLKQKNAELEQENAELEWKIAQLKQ
Description: two-hybrid library CCNG1.

Test [49] deals with T49, 4H949-bN.
T49 chain: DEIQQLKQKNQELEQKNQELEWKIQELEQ
Description: two-hybrid library CCNG1.

Test [50] has as its target T50, 4H953-bA.
T50 chain: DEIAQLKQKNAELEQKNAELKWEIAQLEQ
Description: two-hybrid library CCNG1.

In test [51] the target is T51, 4H968-bA.
T51 chain: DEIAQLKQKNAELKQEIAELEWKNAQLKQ
Nature of the test: two-hybrid library CCNG1.

As for DEIQQLEEEISQLEQKNSELKEKNQELKY [P3mSN], the interaction score in test [1] was -0.0204; in [2], -0.781; in test [3], -0.522; in test [4], -0.239; in test [5] it was -0.172; in test [6], -0.0425.
Regarding KISQLKQKIQQLKQENQQLEEENSQLEYG [P4mS], the interaction score in test [7] is -3.22; in test [8] it was -2.92; in [9] it was -2.82; in test [10] it was -3.02; in test [11], -2.9; in [12], -2.65. In addition, the interaction score in test [13] was -2.64; in [14], -2.75; in test [15], -3; in [16], -2.78; in test [17], -2.94; in test [18], -2.9. Further, the interaction score in test [19] is -2.9; in test [20], -2.65.
With DEIAALEAENAALKAKIAALKAEIAALEG [4H233-AA], the interaction score in test [21] was 1.43; in [22], 0.368; in test [23] it was 1.88; in test [24], -1.45; in test [25] it was 1; in test [26], 1.97. Further, the interaction score in [27] was 1.7; in [28], -0.478; in test [29], 0.682; in test [30] it was -0.974; in test [31], 1.43; in [32] it was 0.594. The interaction score was -0.183 in [33]; 2.39 in [34]; -1.57 in [35]; -1.24 in [36]; -1.43 in test [37]; -0.563 in test [38]. The molecule also displayed an interaction score in test [39] of -1.84.
As to DKNAQLKQKNAELKQKIAELKWEIAQLEQ [4H4073-bA], the interaction score in test [40] was -0.968; in [41] it was -1.06; in test [42], -1.51; in test [43] it was -0.684; in test [44], -1.31; in test [45] it was -1.4. The interaction score is -1.27 in [46]; -1.17 in test [47]; -0.789 in [48]; -1.71 in test [49]; -1.91 in [50]; -1.01 in test [51]. The same molecule registered an interaction score in test [1] of -4.32.
